Literature values in paper PMC2892782.

Biological target: Lys41 (UniProt position 67, TKDRCKPVNTF)
Experiment: NMR

In the case of “Ribonuclease A (bovine pancreatic ribonuclease) (Bos taurus)”, the pKa is given as 8.6-9.1.
